Source: the supplement of paper PMC7125110
± gives the standard error. For some assays here: Variants at the floor of the assay were thinned out.

B1: glmS ribozyme (parent)
chain: AUAAAAGCGCCAGAACUACAGAAAUGUAGUUGACGAGGAGGAGGUUUAUCGAAUUUUCGGCGGAUGCCUCCAAA

Experiments:
Details in all cases: with glucosamine-6-phosphate
glucosamine-6-phosphate [1] = variants of: B1; assay: kcat; higher = faster cleavage; RNA array
How it was run: (§1)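 E. coli RNA polymerase transcribed barcoded ribozyme variants in situ on sequenced MiSeq chips, which were tracked via a hybridised Cy3 probe at 37 °C. Tiles were imaged over ~14 h after glucosamine-6-phosphate (40 μM to 10 mM) in HEPES/KCl/Mg(OAc)2 buffer was flowed in. Normalised per-tile medians were fit to one- or two-exponential decays for kobs, and kcat and KM came from weighted Michaelis–Menten fits.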

glucosamine-6-phosphate [2] = variants of: B1; assay: self-cleavage kobs at 10000 uM GlcN6P; higher = faster cleavage; RNA array
How it was run: as §1

glucosamine-6-phosphate [3] = variants of: B1; assay: KM; higher = weaker cofactor use; RNA array
How it was run: as §1

glucosamine-6-phosphate [4] = variants of: B1; assay: self-cleavage kobs at 40 uM GlcN6P; higher = faster cleavage; RNA array
How it was run: as §1

glucosamine-6-phosphate [5] = variants of: B1; assay: self-cleavage kobs at 640 uM GlcN6P; higher = faster cleavage; RNA array
How it was run: as §1

glucosamine-6-phosphate [6] = variants of: B1; assay: self-cleavage kobs at 2500 uM GlcN6P; higher = faster cleavage; RNA array
How it was run: as §1

glucosamine-6-phosphate [7] = variants of: B1; assay: self-cleavage kobs at 160 uM GlcN6P; higher = faster cleavage; RNA array
How it was run: as §1

Row | Variant | kcat (glucosamine-6-phosphate [1]) [s⁻¹] | self-cleavage kobs at 10000 uM GlcN6P (glucosamine-6-phosphate [2]) [s⁻¹] | KM (glucosamine-6-phosphate [3]) [µM] | self-cleavage kobs at 40 uM GlcN6P (glucosamine-6-phosphate [4]) [s⁻¹] | self-cleavage kobs at 640 uM GlcN6P (glucosamine-6-phosphate [5]) [s⁻¹] | self-cleavage kobs at 2500 uM GlcN6P (glucosamine-6-phosphate [6]) [s⁻¹] | self-cleavage kobs at 160 uM GlcN6P (glucosamine-6-phosphate [7]) [s⁻¹]
1 | AUAAAAGCGCCAGAACUACAGAAAUGUAGUUGACGAGGAGGAGGUUUAUCGAAUUUUAGGAGGAUGCCUCCAAA [C58A C61A] | 1.11e-05 ± 1.1e-06 | < 1e-05 | – | – | – | – | –
2 | AUAAAAGCGCCAGAAGUACAGAAAUGUAGUUGACGAGGAGGAGGUUGAUGGAAUUUUCGGCGGAUGCGUCCAAA [C16G U47G C50G C68G] | 1.23e-05 ± 1.9e-06 | – | – | – | – | – | –
3 | AUAAAAGCGCCAGGACUACAGAAAUGUAGUUGACGAGGAGGAAGUUUAUCGAAUUUUCGGCGGAUGCCUCCAAA [A14G G43A] | 0.000321 ± 4.1e-05 | 0.000222 ± 3.1e-05 | 4730 ± 1200 | < 1e-05 | 4.36e-05 ± 1.3e-05 | 0.000101 ± 2.2e-05 | –
4 | AUAAAAGCGCCAGGACUACAGAAAUGUAGUUGACGAGGAGGAGGUUUAUCGAAUUAUCGGCGGAUGCCUCCAAA [A14G U56A] | 0.121 ± 0.022 | 0.126 ± 0.053 | 1930 ± 400 | 0.00249 ± 0.00036 | 0.0275 ± 0.0058 | 0.0642 ± 0.024 | 0.00984 ± 0.0021
5 | AUAAAAGCGCCAGAACUACAGAAAUGUAGUUGACGAGGAGGUUGUUUAUCGGAUUUUCGGCGGAUGCCUCCAAA [A42U G43U A52G] | < 1e-05 | – | – | – | – | < 1e-05 | –
6 | AUAAAAGCGCCAGAACUACAGAAAUGUAGCUGACGAGGAGGAGGUUUAUCGAAUUUUCGGCGUAUGCCUCCAAA [U30C G63U] | 1.08e-05 ± 3e-06 | < 1e-05 | – | – | – | – | –
7 | AUAAAAGCGCCAGAACUACAGAAAUGUAGUUGACGAGGAGGAGGCUUAUCGAAUUAUCGGCGGAUGCCUCCAAA [U45C U56A] | 0.000778 ± 0.00024 | 0.000928 ± 0.00015 | – | – | 0.000288 ± 3.9e-05 | 0.000377 ± 6.1e-05 | 7.1e-05 ± 1.5e-05
8 | AUAAAAGAGCCAGAACUACAGAAAUGUAGUUGACGAGGAGGAGGUUUGUCGAAUUUUCGGCGGAUGCCUCCAAA [C8A A48G] | < 1e-05 | < 1e-05 | – | – | – | < 1e-05 | < 1e-05
9 | AUAAAAGCGCCAGAACUAAAGAAAUGUAGUUGACGAGGAGGGGGUUUAUCGAAUUUUCGGCGGAUGCCUCCAAA [C19A A42G] | 0.00828 ± 0.0016 | – | 164 ± 59 | 0.00166 ± 0.00056 | 0.00596 ± 0.0022 | – | –
10 | AUAAAAGCGACAGAACUACAGAAAUGUAGUUGACGAGGAGGAGGUUUUUCGAAUUUUCGGCGGAUGCCUCCAAA [C10A A48U] | < 1e-05 | < 1e-05 | – | – | < 1e-05 | – | –
11 | AUAAAAGCGCCAGGACUACAGAAAUGUAGUCGACGAGGAGGAGGUUUAUCGAAUUUUCGGCGGAUGCCUCAAAA [A14G U31C C71A] | 0.00296 ± 0.00085 | 0.00241 ± 0.00085 | 1430 ± 590 | 0.000143 ± 6.1e-05 | – | 0.00227 ± 0.00096 | 0.000251 ± 7.7e-05
12 | AUAAAAGCGCCAGAACUACAGAAAUGUAGUUGACGAGGAGGAGGUUUAUCGAAUCGUCGGCGGAUGCCUCCAAA [U55C U56G] | 0.0112 ± 0.0051 | 0.0103 ± 0.0016 | – | 0.000172 ± 3.6e-05 | 0.00134 ± 0.00022 | 0.00329 ± 0.00056 | 0.000456 ± 6.4e-05
13 | AUAAAAGCGCCAGAACUACAGAAAUGUAGUUUACGAGGAGGAGGUUUAUCGAAUGUUCGGCGGAUGCCUCCAAA [G32U U55G] | 0.000798 ± 0.0002 | 0.000652 ± 9e-05 | 3110 ± 1400 | – | 0.000151 ± 2.5e-05 | 0.000274 ± 6.5e-05 | –
14 | AUAAAAGCGCAAGAACUACAGAAAUGUAGUUGACGAGGAGGAGGUUUAUCGAAUUUUCGGCGGAGGCCUCCAAA [C11A U65G] | 3.43e-05 ± 4.3e-07 | 3.18e-05 ± 1.3e-05 | 777 ± 84 | < 1e-05 | < 1e-05 | – | –
15 | AUAAAAGCGCCAGAACUACAGAAAUGUAGUUGACGAGGAGGAGGUUUAUCGAAUUUUCGGCGGUUGCCUCGAAA [A64U C71G] | 1.96e-05 ± 1.5e-06 | – | – | – | – | – | –
16 | AUAAAAGCGCCAGAACUACAGAAAUGUAGUGGACGAAGAGGAGGUUUAUCGAAUUUUCGGCGGAUGCCUCCAAA [U31G G37A] | 0.00148 ± 0.00038 | 0.000999 ± 0.00019 | 5250 ± 1900 | – | 0.000144 ± 2.8e-05 | 0.000466 ± 7.3e-05 | 6.42e-05 ± 1.6e-05
17 | AUAAAAGCGCCAGAAUUACAGAAAUGUAGUUGACGAGGAGGAGGUUUAUCGAAUUUUCGGGGGAUGCCUCCAAA [C16U C61G] | < 1e-05 | – | – | – | – | – | –
18 | AUAAAAGCGCCAGAACUACAGAAAUGUAGUUGACGAGGAGGAGGUUUAUCGAAUUUUCGGCGGAUAACUCUAAA [G66A C67A C71U] | 0.00289 ± 0.0012 | 0.002 ± 0.00029 | – | 6.11e-05 ± 1.7e-05 | 0.000304 ± 6.2e-05 | 0.00101 ± 0.00048 | –
19 | AUAAAAGCGCCAGAACUACAGAAAUGUAGUUGACGAGGAUGAGGUUUAUCGAAUUUCCGGCGGAUGCCUCCAAA [G40U U57C] | 2.46e-05 ± 1.1e-05 | – | – | < 1e-05 | – | 3.3e-05 ± 1.4e-05 | –
